{
  "source": "paper PMC9993113",
  "about": "“Assay development and inhibition of the Mt-DprE2 essential reductase from Mycobacterium tuberculosis” (Microbiology, 2023)",
  "key": {"[1]": {"target": "T1, Mt-DprE1 (Mycobacterium tuberculosis, UniProt P9WJF1)", "T1 construct": "N-terminal hexa-his tag", "T1 sequence (P9WJF1 whole entry)": "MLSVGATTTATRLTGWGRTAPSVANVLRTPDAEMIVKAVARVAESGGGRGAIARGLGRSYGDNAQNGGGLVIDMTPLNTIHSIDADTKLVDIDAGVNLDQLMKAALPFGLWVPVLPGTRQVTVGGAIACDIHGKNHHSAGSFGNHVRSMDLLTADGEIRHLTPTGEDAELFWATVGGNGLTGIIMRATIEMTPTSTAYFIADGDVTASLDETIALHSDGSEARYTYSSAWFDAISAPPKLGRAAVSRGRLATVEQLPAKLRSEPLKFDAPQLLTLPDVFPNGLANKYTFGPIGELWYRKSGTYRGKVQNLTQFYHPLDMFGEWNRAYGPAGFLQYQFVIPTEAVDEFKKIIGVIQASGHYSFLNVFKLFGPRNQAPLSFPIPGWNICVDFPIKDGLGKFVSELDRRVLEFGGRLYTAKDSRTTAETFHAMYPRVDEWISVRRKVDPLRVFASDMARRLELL", "experiment": "resazurin-based DprE1 enzyme assay with GGPR substrate", "type": "biochemical"}, "[2]": {"tested_on": "CC(C)=CCC/C(C)=C/CC/C(C)=C/CC/C(C)=C/COP(=O)(O)O[C@@H]1O[C@H](CO)[C@@H](O)[C@H]1O", "experiment": "purified protein", "settings": "FAD"}, "[3]": {"tested_on": "NC(=O)C1=CN([C@@H]2O[C@H](COP(=O)(O)OP(=O)(O)OC[C@H]3O[C@@H](n4cnc5c(N)ncnc54)[C@H](O)[C@@H]3O)[C@@H](O)[C@H]2O)C=CC1", "experiment": "purified protein", "settings": "varied: cofactor"}, "[4]": {"tested_on": "NC(=O)C1=CN([C@@H]2O[C@H](COP(=O)(O)OP(=O)(O)OC[C@H]3O[C@@H](n4cnc5c(N)ncnc54)[C@H](OP(=O)(O)O)[C@@H]3O)[C@@H](O)[C@H]2O)C=CC1", "experiment": "purified protein", "settings": "varied: cofactor"}},
  "data": [
    {"substance": "BTZ", "values": [
      {"measurement": "IC50", "setting": "[1]", "result": "5.7 ± 0.5", "unit": "µM"}
    ]},
    {"substance": "Mt-DprE1 (Mycobacterium tuberculosis H37Rv)", "values": [
      {"measurement": "Km", "setting": "[2]", "result": "36.9 ± 0.7", "unit": "µM"},
      {"measurement": "Vmax", "setting": "[2]", "result": 35.8, "unit": "µM/min"}
    ]},
    {"substance": "Mt-DprE2 (Mycobacterium tuberculosis H37Rv)", "values": [
      {"measurement": "Km", "setting": "[3]", "result": "10.5 ± 5.6", "unit": "µM"},
      {"measurement": "Vmax", "setting": "[3]", "result": 14.3, "unit": "µM/min"},
      {"measurement": "Km", "setting": "[4]", "result": "34.6 ± 11.2", "unit": "µM"},
      {"measurement": "Vmax", "setting": "[4]", "result": 11.2, "unit": "µM/min"}
    ]}
  ]
}
